Source: PMC3469484
Where a chain is given by its changes, count along the chain named.

Tests used:
[1] = molecular target: Chromobacterium violaceum OhrR (CV0210), wild type, N-terminal histidine tag (Chromobacterium violaceum); assay: cross-linking; intermolecular disulfide bond formed on oxidation, read by 14% nonreducing SDS-PAGE: DTT-reduced, desalted OhrR (10 µM) treated with 100 µM cumene hydroperoxide for 30 min, then alkylated with 100 mM NEM for 2 h; Coomassie stain
[2] = system: T1, OhrR WT (Chromobacterium violaceum ATCC 12472), ORF:deafe3b3; assay: EMSA; settings: EMSA: 20 mM Tris-HCl pH 7.4, 50 mM KCl, 1 mM DTT, 1 mM EDTA, 5% glycerol, 0.05 mg/ml BSA, 0.1 mg/ml salmon sperm DNA, 25 C, 25 min; footprinting the same …
T1 sequence: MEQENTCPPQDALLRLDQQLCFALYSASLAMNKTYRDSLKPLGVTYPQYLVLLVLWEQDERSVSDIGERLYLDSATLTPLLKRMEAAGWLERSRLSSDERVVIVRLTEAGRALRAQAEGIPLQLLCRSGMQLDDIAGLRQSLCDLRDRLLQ

[3] = system: T2, OhrR C126S C126S (Chromobacterium violaceum ATCC 12472), ORF:deafe3b3; assay: EMSA; settings: EMSA: 20 mM Tris-HCl pH 7.4, 50 mM KCl, 1 mM DTT, 1 mM EDTA, 5% glycerol, 0.05 mg/ml BSA, 0.1 mg/ml salmon sperm DNA, 25 C, 25 min; footprinting the same …
T2 sequence: T1 sequence with C126S

[4] = system: T1, OhrR WT (Chromobacterium violaceum ATCC 12472), ORF:deafe3b3; assay: DNase I footprinting; settings: EMSA: 20 mM Tris-HCl pH 7.4, 50 mM KCl, 1 mM DTT, 1 mM EDTA, 5% glycerol, 0.05 mg/ml BSA, 0.1 mg/ml salmon sperm DNA, 25 C, 25 min; footprinting the same …

| Substance | stoichiometry N [1] | binding [2] | binding [3] | binding [4] |
| --- | --- | --- | --- | --- |
| Chromobacterium violaceum OhrR (CV0210), wild type, N-terminal histidine tag (natural protein) | 2 |  |  |  |
| TGAATTCAATCCGTGACGCCGCACAGGGCGCCGGAATGGAACATTCGCGCGCGAACCGGAAAGCGACTCAGCAACGCATCCAGCCTGTCGACACATGCCTCAGCCACATCAGGACTCCTTATCAAATTTTCAGGATCCTATGCAGCTTATCGTCATTTTGCTTGGCATAAAGTTTCTCCAGCCAAACGGCTTAAGCCCACCAACCATCAGGAGCACATCATGTCGATTGAAACCATTCTGTACCGGACCCAAGCCACCGTAAGCTTA (double strand) [ohrB promoter] |  | no binding |  |  |
| TAAGCTTGCGGTGGCTTCGGCGGTATACAGTACTTTTTGCAGAGGGTTCATCTGGCTCTCCTTGGCTTGACGCCGTTGCGATTAAAATAATGAGCTATTTAATAGTGCACTATCTAACTATCAAAACCCTGACGGGTTCATTGCAGCAGCCGGTCGCGCAGATCGCACAGCGACTGCCTCAATCCGGCGATATCGTCCAGTTGCATTCCGCTCCGGCAGGATCCA (double strand) [ohrA promoter] |  | binds | binds | binds |
| TGGATCCCTCGCTGGCCGATCTGGGACGCGGCCCGGTGCGGGCGGCCGCCTGATCGCGGTTTCGCGCCCGCTTGGCGCGGGCGCGTCGCGGTTCCGCATAATAATAAATTGCTTGCAATTAAATAGTGCACTATTTATTATGCGGCCATGGAACAAGAAAACACGTGCCCGCCGCAGGACGCGCTTTTGCGGCTGGACCAGCAACTCTGCTTCGCGCTGTATTCCGCCAAGCTTA (double strand) [ohrR promoter] |  | binds | binds | binds |
